Test results published in patent US20140363427A1.

Experiments:
[1] = target: F protein of RSV B-1 (respiratory syncytial virus B-1) (UniProt O36634); test: cell-based or functional assay
[2] = target: F protein of RSV B-wash (strain 18537) (respiratory syncytial virus B, strain 18537) (UniProt P13843); test: cell-based or functional assay
[3] = target: F protein of the 58C5 MARM (N63K, M115K, E295G) (Respiratory Syncytial Virus strain A2, escape mutant) (UniProt P03420); test: cell-based or functional assay
[4] = target: F protein of the Motavizumab MARM (K272E) (Respiratory Syncytial Virus strain A2, escape mutant) (UniProt P03420); test: cell-based or functional assay
[5] = target: F protein of the parental RSV A2 strain (Example 11) (Respiratory Syncytial Virus strain A2) (UniProt P03420); test: cell-based or functional assay
[6] = target: native RSV F protein from the RSV A2 strain (Respiratory Syncytial Virus strain A2) (UniProt P03420); test: cell-based or functional assay
[7] = target: RSV F A2 mutant F351S (human RSV, A2 strain) (UniProt P03420); test: mutant F in HEK 293 cells
[8] = target: RSV F A2 mutant V278M (human RSV, A2 strain) (UniProt P03420); test: mutant F in HEK 293 cells
[9] = target: RSV F A2 mutant E463A (human RSV, A2 strain) (UniProt P03420); test: mutant F in HEK 293 cells
[10] = target: RSV F A2 mutant E82G (human RSV, A2 strain) (UniProt P03420); test: mutant F in HEK 293 cells
[11] = target: RSV F A2 mutant N371D (human RSV, A2 strain) (UniProt P03420); test: mutant F in HEK 293 cells
[12] = target: RSV F A2 mutant S403A (human RSV, A2 strain) (UniProt P03420); test: mutant F in HEK 293 cells
[13] = target: RSV F A2 mutant Y86C (human RSV, A2 strain) (UniProt P03420); test: mutant F in HEK 293 cells

## IgG form of 58c5 (antibody)
[1]
  ED50, plaque reduction, RSV B-1: 0.28 nM
[2]
  ED50, plaque reduction, RSV B/wash: 0.193 nM
[3]
  ED50, plaque reduction, 58C5 MARM: > 66.7 nM
[4]
  ED50, plaque reduction, Motavizumab MARM: 0.173 nM
[5]
  ED50, plaque reduction, RSV A2 parental: 0.115 nM
[6]
  ED50, plaque reduction, RSV A2: 0.133 nM
[7]
  immunoluminescence Mean: 7.4
  immunoluminescence S1: 2.9
  immunoluminescence S3: 6.1
  immunoluminescence S4: 14.7
[8]
  immunoluminescence Mean: 99.8
  immunoluminescence S1: 122
  immunoluminescence S2: 97.6
  immunoluminescence S3: 79.6

## Motavizumab IgG (antibody)
[9]
  immunoluminescence Mean: 101
[10]
  immunoluminescence Mean: 42.1
[11]
  immunoluminescence Mean: 26.9
[12]
  immunoluminescence Mean: 28
[13]
  immunoluminescence Mean: 24.8

## Fab 58c5
[1]
  Average Plaque Count, RSV B-1, Fab at 0.003 µg/ml (12.3 at 0 µg/ml): 11.7
  Average Plaque Count, RSV B-1, Fab at 0.016 µg/ml (12.3 at 0 µg/ml): 8.7
  Average Plaque Count, RSV B-1, Fab at 0.08 µg/ml (12.3 at 0 µg/ml): 4.7
  Average Plaque Count, RSV B-1, Fab at 0.4 µg/ml (12.3 at 0 µg/ml): 0
  Average Plaque Count, RSV B-1, Fab at 2 µg/ml (12.3 at 0 µg/ml): 0
  Average Plaque Count, RSV B-1, Fab at 10 µg/ml (12.3 at 0 µg/ml): 0.3
  ED50, plaque reduction, RSV B-1: 0.84 nM
  ED50, plaque reduction, RSV B-1 (mass concentration): 0.042 µg/mL
[2]
  Average Plaque Count, RSV B/wash, Fab at 0.003 µg/ml (26.3 at 0 µg/ml): 23.3
  Average Plaque Count, RSV B/wash, Fab at 0.016 µg/ml (26.3 at 0 µg/ml): 16.3
  Average Plaque Count, RSV B/wash, Fab at 0.08 µg/ml (26.3 at 0 µg/ml): 5
  Average Plaque Count, RSV B/wash, Fab at 0.4 µg/ml (26.3 at 0 µg/ml): 0
  Average Plaque Count, RSV B/wash, Fab at 2 µg/ml (26.3 at 0 µg/ml): 0.7
  Average Plaque Count, RSV B/wash, Fab at 10 µg/ml (26.3 at 0 µg/ml): 1.3
  ED50, plaque reduction, RSV B/wash: 0.5 nM
  ED50, plaque reduction, RSV B/wash (mass concentration): 0.025 µg/mL
